From paper PMC3325275, “Molecular Mechanism Underlying the Interaction of Typical Sac10b Family Proteins with DNA” (PLoS ONE, 2012) come the findings set out here.

Data set [1] relates to Mth10b I39R (Methanobacterium thermoautotrophicum ΔH). The data set is described as follows: SPR. Conditions: SPR (BIAcore 3000, SA chip): 20 mM Tris, 1 mM EDTA, 0.005% Tween20, pH 7.5, with 0, 0.1 or 0.3 M NaCl, 25°C. (In general: In SPR one partner is held on a chip, and binding of the other changes the refractive index at the surface.)
The subject of data set [2] is Mth10b N11K (Methanobacterium thermoautotrophicum ΔH). As to the kind of experiment: SPR. Conditions: SPR (BIAcore 3000, SA chip): 20 mM Tris, 1 mM EDTA, 0.005% Tween20, pH 7.5, with 0, 0.1 or 0.3 M NaCl, 25°C.
The subject of data set [3] is Mth10b N11KI39RT77R (Methanobacterium thermoautotrophicum ΔH). As to the kind of experiment: SPR. As to conditions: SPR (BIAcore 3000, SA chip): 20 mM Tris, 1 mM EDTA, 0.005% Tween20, pH 7.5, with 0, 0.1 or 0.3 M NaCl, 25°C.
The test system of data set [4] is Mth10b T77R (Methanobacterium thermoautotrophicum ΔH). As to the kind of experiment: SPR. Conditions: no NaCl; apparent KD; SPR (BIAcore 3000, SA chip): 20 mM Tris, 1 mM EDTA, 0.005% Tween20, pH 7.5, with 0, 0.1 or 0.3 M NaCl, 25°C.
In data set [5] the target is T1, Mth10b N11KI39RT77R N11K;I39R;T77R (Methanobacterium thermoautotrophicum ΔH) (UniProt O27527).
T1 sequence: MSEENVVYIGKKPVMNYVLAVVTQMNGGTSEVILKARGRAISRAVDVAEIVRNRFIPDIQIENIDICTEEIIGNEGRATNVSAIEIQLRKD
The data set is described as follows: SPR. As to conditions: SPR (BIAcore 3000, SA chip): 20 mM Tris, 1 mM EDTA, 0.005% Tween20, pH 7.5, with 0, 0.1 or 0.3 M NaCl, 25°C.

The target of data set [6] is T2, Mth10b T77R T77R (Methanobacterium thermoautotrophicum ΔH) (UniProt O27527).
T2 sequence: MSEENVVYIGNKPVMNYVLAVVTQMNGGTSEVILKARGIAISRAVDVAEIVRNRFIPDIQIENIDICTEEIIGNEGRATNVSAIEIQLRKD
As to the kind of experiment: SPR. Conditions: SPR (BIAcore 3000, SA chip): 20 mM Tris, 1 mM EDTA, 0.005% Tween20, pH 7.5, with 0, 0.1 or 0.3 M NaCl, 25°C.

Data set [7] addresses T3, Mth10b wild type (Methanobacterium thermoautotrophicum ΔH) (UniProt O27527).
T3 sequence: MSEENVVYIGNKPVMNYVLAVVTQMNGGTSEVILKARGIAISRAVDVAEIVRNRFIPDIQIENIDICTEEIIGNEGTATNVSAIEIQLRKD
The data set is described as follows: SPR. Conditions: SPR (BIAcore 3000, SA chip): 20 mM Tris, 1 mM EDTA, 0.005% Tween20, pH 7.5, with 0, 0.1 or 0.3 M NaCl, 25°C.

Data set [8] concerns the molecule itself. The data set is described as follows: crystal structure; purified Mth10b at ~10 mg/ml in 10 mM HEPES pH 7.2, 150 mM NaCl; hanging drop at 4°C over 0.1 M NaCl, 1.6 M (NH4)2SO4, 0.1 M HEPES pH 7.5; 2.2 Å; dimer formed about a crystallographic two-fold axis.
[9] abbreviates: 0.1 M NaCl, slight cooperativity.

A word on the stoichiometry N: it is the number of molecules, sites or subunits per partner or assembly.

As for 110 bp mth10b fragment, the Kd in data set [1] (setting [9]) stood at 6.5 µM; in data set [1] (no NaCl, apparent KD) it was 0.26 µM; in data set [2] (0.1 M NaCl, marked cooperativity), 30 µM; in data set [2] (no NaCl, apparent KD), 2.1 µM; in data set [3] (setting [9]), 0.7 µM; in data set [4] it was 16 µM. The fold decrease in affinity (fold lower affinity than in 0.1 M NaCl) in data set [3] (0.3 M NaCl, high cooperativity) amounted to 70.

“GTGATGTCAGAGGAGAATGTAGTATACATCGGAAACAAGCCTGTAATGAACTATGTTCTGGCCGTGGTTACTCAGATGAACGGTGGGACCAGTGAAGTGATCCTTAAAGC (double strand) [110 bp mth10b fragment]”: the Kd in data set [5] worked out at 0.7 µM; in data set [6], 16 µM. Further, in data set [7], the binding entry is “no binding”.

B1: Mth10b from Methanobacterium thermoautotrophicum ΔH (natural protein, UniProt O27527 1-91, looked up)
chain: MSEENVVYIGNKPVMNYVLAVVTQMNGGTSEVILKARGIAISRAVDVAEIVRNRFIPDIQIENIDICTEEIIGNEGTATNVSAIEIQLRKD
notes: Mth10b, atypical Sac10b (Alba) family member of Methanobacterium thermoautotrophicum ΔH, gene mth10b (MTH1483); 91 residues in total, C-terminal residue Asp91; expressed from pET11a-mth10b; the structure model covers 86 of the 91 residues; also called wild type Mth10b; source: E. coli BL21 (DE3), purified
For the molecule B1, in data set [8], the “stoichiometry N” value amounted to 2.
